# Measured values published in PMC7396682, “Effect of a Novel Alpha/Beta Hydrolase Domain Protein on Tolerance of K. marxianus to Lignocellulosic Biomass Derived Inhibitors” (Frontiers in Bioengineering and Biotechnology, 2020).
# Tests used:
# Test in all cases: purified protein
# Type in all cases: biochemical, Kluyveromyces marxianus
# [1] = substrate: CC(=O)Oc1ccc([N+](=O)[O-])cc1; conditions: 50 mM Tris-HCl, pH 8.0, 37 °C
# [2] = substrate: CC(C)(COP(=O)(O)OP(=O)(O)OC[C@H]1O[C@@H](n2cnc3c(N)ncnc32)[C@H](O)[C@@H]1OP(=O)(O)O)[C@@H](O)C(=O)NCCC(=O)NCCSC(=O)CCC(=O)O; conditions: 100 mM HEPES, pH 8.0, 37 °C, 1 mM DTNB
# [3] = substrate: CCCC(=O)Oc1ccc([N+](=O)[O-])cc1; conditions: 50 mM Tris-HCl, pH 8.0, 37 °C
# [4] = substrate: CCCC(=O)SCCNC(=O)CCNC(=O)[C@H](O)C(C)(C)COP(=O)(O)OP(=O)(O)OC[C@H]1O[C@@H](n2cnc3c(N)ncnc32)[C@H](O)[C@@H]1OP(=O)(O)O; conditions: 100 mM HEPES, pH 8.0, 37 °C, 1 mM DTNB
# [5] = substrate: CCCCCCCCCC(=O)SCCNC(=O)CCNC(=O)[C@H](O)C(C)(C)COP(=O)(O)OP(=O)(O)OC[C@H]1O[C@@H](n2cnc3c(N)ncnc32)[C@H](O)[C@@H]1OP(=O)(O)O; conditions: 100 mM HEPES, pH 8.0, 37 °C, 1 mM DTNB
Protein,Km [1] [µM],Km [2] [µM],Km [3] [µM],Km [4] [µM],Km [5] [µM]
"KmYME (Kluyveromyces marxianus DMKU3-1042) (protein, expressed from pWD010 (T7 promoter) in E. coli BL21(DE3), nickel-column purified (tag not described); native full length 360 aa) MLLAYTVRPSNWSFTRRAYSATARAFNQQKGLLPLPIKETVDMAYDLHLPERSVIGKMPYHSPEPIIFYHGLLGSKRNYRHDCKKLATALQTPVYTVDIRNHGSSEHALPFDYNTLVNDLVHFAETHSLGKVNLVGYSLGAKVAMLACLKHPERFSAACIIDNSPEEQPHIKPLLTALVKSCVKLLDHHNVRADDKLWRHKASEALKKYIPDAGIRYYLLSNIINNPRVVEYRSPVINYDDGMLHFKNPVRHMMDFVTKEVAAWPTQELEGKQFLGPVNFIKATRSDFINPKSLQAINQYFPYHNIDEINATHFILNERPQEYLRAVTDFFKVTRYQLEKKREQDLAKIDQLNASESLKSARD",189.73 ± 12.20,387.58 ± 3.42,258.41 ± 5.97,468.44 ± 20.62,329.20 ± 12.75
"KmYME (Kluyveromyces marxianus DMKU3-1042; L139M/Y137H) (protein, expressed from pWD010 (T7 promoter) in E. coli BL21(DE3), nickel-column purified (tag not described); native full length 360 aa) MLLAYTVRPSNWSFTRRAYSATARAFNQQKGLLPLPIKETVDMAYDLHLPERSVIGKMPYHSPEPIIFYHGLLGSKRNYRHDCKKLATALQTPVYTVDIRNHGSSEHALPFDYNTLVNDLVHFAETHSLGKVNLVGHSMGAKVAMLACLKHPERFSAACIIDNSPEEQPHIKPLLTALVKSCVKLLDHHNVRADDKLWRHKASEALKKYIPDAGIRYYLLSNIINNPRVVEYRSPVINYDDGMLHFKNPVRHMMDFVTKEVAAWPTQELEGKQFLGPVNFIKATRSDFINPKSLQAINQYFPYHNIDEINATHFILNERPQEYLRAVTDFFKVTRYQLEKKREQDLAKIDQLNASESLKSARD",193.89 ± 10.00,1022.84 ± 145.83,685.66 ± 34.83,1138.20 ± 185.83,449.88 ± 87.78
